Data on four molecules can be found in paper doi:10.1101/2022.03.07.483330 (bioRxiv, 2022).

For assay [1], the target named is human wild-type DLL4 (N-EGF5, residues 27-400) (human, UniProt Q9NR61 27-400). In words: SPR. On the technique in general: In SPR one partner is held on a chip, and binding of the other changes the refractive index at the surface.
Assay [2] deals with DLL4.v2 (N-EGF5) (human, UniProt Q9NR61 27-400, N257P | T271L | F280Y | S301R | Q305P). Briefly: SPR.
Sequence of DLL4.v2 (N-EGF5) (Q9NR61 27-400 N257P/T271L/F280Y/S301R/Q305P): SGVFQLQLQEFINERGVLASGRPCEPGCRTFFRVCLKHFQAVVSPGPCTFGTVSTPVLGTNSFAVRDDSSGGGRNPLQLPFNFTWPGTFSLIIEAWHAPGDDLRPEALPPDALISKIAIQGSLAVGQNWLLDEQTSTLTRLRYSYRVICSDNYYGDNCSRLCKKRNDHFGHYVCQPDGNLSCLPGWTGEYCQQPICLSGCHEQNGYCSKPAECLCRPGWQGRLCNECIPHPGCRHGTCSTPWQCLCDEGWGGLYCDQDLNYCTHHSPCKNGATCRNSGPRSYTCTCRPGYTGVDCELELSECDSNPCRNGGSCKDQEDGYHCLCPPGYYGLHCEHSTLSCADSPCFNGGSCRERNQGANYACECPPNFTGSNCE

Sequence of human wild-type DLL4 (N-EGF5, residues 27-400) (Q9NR61 27-400): as the sequence (Q9NR61 27-400 N257P/T271L/F280Y/S301R/Q305P) above, with P231N, L245T, Y254F, R275S, P279Q counted along it

B1: human Notch2 (EGF6-13, residues 221-530), biotinylated (domain or fragment, UniProt Q04721 221-530, looked up)
chain: LYVPCAPSPCVNGGTCRQTGDFTFECNCLPGFEGSTCERNIDDCPNHRCQNGGVCVDGVNTYNCRCPPQWTGQFCTEDVDECLLQPNACQNGGTCANRNGGYGCVCVNGWSGDDCSENIDDCAFASCTPGSTCIDRVASFSCMCPEGKAGLLCHLDDACISNPCHKGALCDTNPLNGQYICTCPQGYKGADCTEDVDECAMANSNPCEHAGKCVNTDGAFHCECLKGYAGPRCEMDINECHSDPCQNDATCLDKIGGFTCLCMPGFKGVHCELEINECQSNPCVNNGQCVDKVNRFQCLCPPGFTGPVCQ
modifications: biotin on the C-terminal BAP-tag (BirA)
B1: the binding result in assay [1] and in assay [2] was “binds” throughout.

B2: mouse Notch1 (EGF6-13, residues 221-526), biotinylated (domain or fragment, UniProt Q01705 221-526, looked up)
chain: PCSPSPCQNGGTCRPTGDTTHECACLPGFAGQNCEENVDDCPGNNCKNGGACVDGVNTYNCRCPPEWTGQYCTEDVDECQLMPNACQNGGTCHNTHGGYNCVCVNGWTGEDCSENIDDCASAACFQGATCHDRVASFYCECPHGRTGLLCHLNDACISNPCNEGSNCDTNPVNGKAICTCPSGYTGPACSQDVDECALGANPCEHAGKCLNTLGSFECQCLQGYTGPRCEIDVNECISNPCQNDATCLDQIGEFQCICMPGYEGVYCEINTDECASSPCLHNGHCMDKINEFQCQCPKGFNGHLCQ
modifications: biotin on the C-terminal BAP-tag (BirA)
Turning to B2, the binding result in assay [1] and in assay [2] was “binds” throughout.

B3: human Notch3 (EGF5-12, residues 197-505), biotinylated (domain or fragment, UniProt Q9UM47 197-505, looked up)
chain: PAVPCAPSPCRNGGTCRQSGDLTYDCACLPGFEGQNCEVNVDDCPGHRCLNGGTCVDGVNTYNCQCPPEWTGQFCTEDVDECQLQPNACHNGGTCFNTLGGHSCVCVNGWTGESCSQNIDDCATAVCFHGATCHDRVASFYCACPMGKTGLLCHLDDACVSNPCHEDAICDTNPVNGRAICTCPPGFTGGACDQDVDECSIGANPCEHLGRCVNTQGSFLCQCGRGYTGPRCETDVNECLSGPCRNQATCLDRIGQFTCICMAGFTGTYCEVDIDECQSSPCVNGGVCKDRVNGFSCTCPSGFSGSTCQ
modifications: biotin on the C-terminal BAP-tag (BirA)
As for B3, the binding result in assay [1] and in assay [2] was “binds” throughout.

B4: human Notch4 (EGF7-12, residues 276-511), biotinylated (domain or fragment, UniProt Q99466 276-511, looked up)
chain: NPDNCVSHQCQNGGTCQDGLDTYTCLCPETWTGWDCSEDVDECETQGPPHCRNGGTCQNSAGSFHCVCVSGWGGTSCEENLDDCIAATCAPGSTCIDRVGSFSCLCPPGRTGLLCHLEDMCLSQPCHGDAQCSTNPLTGSTLCLCQPGYSGPTCHQDLDECLMAQQGPSPCEHGGSCLNTPGSFNCLCPPGYTGSRCEADHNECLSQPCHPGSTCLDLLATFHCLCPPGLEGQLCE
modifications: biotin on the C-terminal BAP-tag (BirA)
With B4, the binding result in assay [1] and in assay [2] was “binds” each time.
